Measurements as given in patent US20150218285A1 (TORAY INDUSTRIES, published 2015).

Columns and labels:
[1] = target: T1, CAPRIN-1 protein on the cell surface of human cancer cells (human, UniProt Q14444 2-709); assay: flow cytometry on Hep3B, HepG2, SK-Hep-1, SW480; culture supernatant; vs isotype control
T1 construct: whole, on cells; endogenous protein of human cancer cell lines
T1 sequence (looked up): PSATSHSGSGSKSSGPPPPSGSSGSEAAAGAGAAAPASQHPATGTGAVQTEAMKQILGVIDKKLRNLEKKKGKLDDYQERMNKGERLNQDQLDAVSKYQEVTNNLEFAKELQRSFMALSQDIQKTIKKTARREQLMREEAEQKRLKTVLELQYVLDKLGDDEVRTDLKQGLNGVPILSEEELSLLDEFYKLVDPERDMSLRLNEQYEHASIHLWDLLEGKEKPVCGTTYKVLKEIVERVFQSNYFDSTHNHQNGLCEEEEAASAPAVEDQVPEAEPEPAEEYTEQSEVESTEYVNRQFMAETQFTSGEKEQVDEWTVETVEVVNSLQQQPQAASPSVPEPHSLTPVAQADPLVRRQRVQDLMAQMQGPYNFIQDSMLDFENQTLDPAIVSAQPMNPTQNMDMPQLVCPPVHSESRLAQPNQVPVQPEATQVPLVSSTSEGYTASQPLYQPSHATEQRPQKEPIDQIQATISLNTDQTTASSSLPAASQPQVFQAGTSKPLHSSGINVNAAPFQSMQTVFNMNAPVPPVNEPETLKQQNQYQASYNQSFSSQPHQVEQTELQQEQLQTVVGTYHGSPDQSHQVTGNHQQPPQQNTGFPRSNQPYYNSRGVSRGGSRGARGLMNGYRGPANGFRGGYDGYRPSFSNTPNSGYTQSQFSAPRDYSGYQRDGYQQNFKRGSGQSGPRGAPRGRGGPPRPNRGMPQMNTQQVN
Protocol: Subsequently, four liver cancer cell lines (Hep3 GB, HepG2, SK-Hep-1, and SW480), which were confirmed to express a CAPRIN-1 gene, were investigated for whether or not a CAPRIN-1 protein is expressed on the surfaces of these cells. 1×10⁶ cells of each cell line were centrifuged with a 1.5-mL micro centrifugation tube. To the cells was added the culture supernatant (100 μL) containing any of mouse monoclonal antibodies #1 to #22 against a CAPRIN-1 protein reacting to cancer cell surface produced in Example 4 and mouse-chicken chimeric antibodies #1 to #3 against a CAPRIN-1 protein produced in the above (2), followed by being left to stand on ice for 1 hour. After washing with PBS, the cells were suspended in a FITC-labeled goat anti-mouse IgG antibody (manufactured by Invitrogen Corporation) diluted by 500-fold with PBS containing 0.1% FBS, followed by being left to stand on ice for 1 hour. After washing with PBS, the fluorescence intensity was measured with FACS Calibur available from Becton, Dickinson and Company. Separately, as a control, the same procedure as in above was performed using an iso-type control antibody, instead of the culture supernatants containing the mouse monoclonal antibodies #1 to #22 against a CAPRIN-1 protein and the mouse-chicken chimeric antibodies #1 to #3. As a result, the fluorescence intensity in the cells to which any of the monoclonal antibodies #1 to #22 and the mouse-chicken chimeric antibodies #1 to #3 was added was 20% or more higher than that in the control in every case. Specifically, in the case of using mouse-chicken chimeric antibody #1, the fluorescence intensity was enhanced by 200% or more in both SK-Hep-1 and Hep3B. […] The rate of increase in the fluorescence intensity is represented by the rate of increase in the mean fluorescence intensity (MFI value) in each cell and is calculated by the following calculation formula: […]

[2] = target: T1, CAPRIN-1 protein on the cell surface of …; assay: cell-based or functional assay
[3] = target: T2, polypeptide set forth in SEQ ID NO: 266 (human); assay: ELISA on immobilised synthetic CAPRIN-1 peptides, culture supernatant
T2 construct: identified by ELISA on synthetic 12-16 aa peptides of human CAPRIN-1
T2 peptide: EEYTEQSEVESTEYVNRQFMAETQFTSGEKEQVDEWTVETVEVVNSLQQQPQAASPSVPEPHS

[4] = target: T3, peptide set forth in SEQ ID NO: 267 (human); assay: as above
T3 peptide: QQPQAASPSVPE

[5] = target: T4, polypeptide set forth in SEQ ID NO: 430 (human); assay: reactivity with the epitope peptide, method not detailed
T4 peptide: ATQVPLVSSTSEGYTA

[6] = target: T1, CAPRIN-1 protein on the cell surface of …; assay: reactivity with liver cancer cell lines, method not detailed
[7] = target: T5, human CAPRIN-1 recombinant protein (human, UniProt Q14444 1-709); assay: reactivity with CAPRIN-1 protein, method not detailed
T5 construct: also called CAPRIN-1 protein; human CAPRIN-1 protein
T5 sequence: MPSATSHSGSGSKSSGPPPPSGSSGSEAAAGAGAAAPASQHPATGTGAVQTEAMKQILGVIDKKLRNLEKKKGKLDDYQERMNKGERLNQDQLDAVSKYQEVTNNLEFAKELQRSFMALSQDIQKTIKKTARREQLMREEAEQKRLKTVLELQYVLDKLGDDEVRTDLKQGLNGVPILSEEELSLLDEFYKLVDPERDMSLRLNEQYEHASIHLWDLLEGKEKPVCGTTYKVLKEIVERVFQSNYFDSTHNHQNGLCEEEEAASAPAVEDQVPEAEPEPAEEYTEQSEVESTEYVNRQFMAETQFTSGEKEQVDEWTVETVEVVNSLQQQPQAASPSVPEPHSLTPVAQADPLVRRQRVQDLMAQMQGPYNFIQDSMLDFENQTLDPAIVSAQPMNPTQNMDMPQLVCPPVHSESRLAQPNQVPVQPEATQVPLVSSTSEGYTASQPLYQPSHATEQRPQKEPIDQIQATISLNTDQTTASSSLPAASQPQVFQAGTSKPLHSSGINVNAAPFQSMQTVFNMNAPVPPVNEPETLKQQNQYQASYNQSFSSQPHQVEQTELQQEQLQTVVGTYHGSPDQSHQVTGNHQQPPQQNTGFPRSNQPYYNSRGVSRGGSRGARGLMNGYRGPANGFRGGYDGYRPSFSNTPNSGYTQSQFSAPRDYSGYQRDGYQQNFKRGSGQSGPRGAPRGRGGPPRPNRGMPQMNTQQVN

B1: mouse monoclonal antibody #12 (antibody, V domains shown)
VH: EVQLHQFGAELVKPGASVKISCKASGYTFTDYNMDWVKQSHGKSLEWIGDINPNYDSTSYNQKFKGKATLTVDKSSSTAYMELRSLTSEDTAVYYCARSRSYDYEGFAYWGQGTLVTVSA
VL: DIQMTQSPASLSASVGETVTITCRASGNIHNYLAWYQQKQGKSPQLLVYNAKTLADGVPSRFSGSGSGTQYSLKINSLQPEDFGSYYCQHFWSTLTFGAGTKLELKR
notes: mouse hybridoma antibody
**Q.** For B1, which “rate of increase in mean fluorescence intensity” value (“rate of increase” below) [1] is on record?
**A.** ≥ 20%

**Q.** And the “cytotoxicity (ADCC, 51Cr release) on SK-Hep-1” value (from here on “cytotoxicity”) [2]?
**A.** ≥ 12%

B2: mouse monoclonal antibody #14 (antibody, V domains shown)
VH: EVQLHQFGAELVKPGASVKISCKASGYTFTDYNMDWVKQSHGKSLEWIGDINPNYDSTSYNQKFKGKATLTVDKSSSTAYMELRSLTSEDTAVYYCARSRSYDYEGFAYWGQGTLVTVSA
VL: DIQLTQSPASLSASVGETVTITCRASGNIHNYLAWYQQKQGKSPQLLVYNAKTLADGVPSRFSGSGSGTQYSLKINSLQPEDFGSYYCQHFWSTLTFGGGTKLEIK
notes: mouse hybridoma antibody
**Q.** What does the source list for B2?
**A.** rate of increase in mean fluorescence intensity [1]: ≥ 20%; cytotoxicity (ADCC, 51Cr release) on SK-Hep-1 [2]: ≥ 12%

B3: mouse monoclonal antibody #15 (antibody, V domains shown)
VH: EVQLHQFGAELVKPGASVKISCKASGYTFTDYNMDWVKQSHGKSLEWIGDINPNYDSTSYNQKFKGKATLTVDKSSSTAYMELRSLTSEDTAVYYCARSRSYDYEGFAYWGQGTLVTVSA
VL: SGDRVSLSCRASQSISNYLHWYQQKSHESPRLLIKYASQSISGIPSRFSGSGSGTDFTLSINSVETEDFGMYFCQQSNSWPYTFGAGTKLEIKQ
notes: mouse hybridoma antibody
**Q.** Which results are given for B3?
**A.** rate of increase in mean fluorescence intensity [1]: ≥ 20%; cytotoxicity (ADCC, 51Cr release) on SK-Hep-1 [2]: ≥ 12%

B4: mouse monoclonal antibody #18 (antibody, V domains shown)
VH: LQESGAELARPGASVKLSCKASGYTFTSYWMQWVKQRPGQGLEWIGAIYPGDGDTRYTQKFKGKATLTADKSSSTAYMQLSSLASEDSAVYYCARGEYGNYFAYWGQGTTVTVSS
VL: TSDASLGERVTITCKASQDINSYLSWFQQKPGKSPKTLIYRANRLVDGVPSRFSGSGSGQDYSLTISSLEYEDMGIYYCLQYDEFPLTFGGGTKLEIKQ
notes: mouse hybridoma antibody
**Q.** How did the “rate of increase” value [1] turn out when B4 was run?
**A.** ≥ 20%

**Q.** What about the “cytotoxicity” value [2] of the same binder?
**A.** ≥ 12%

B5: mouse monoclonal antibody #3 (antibody, V domains shown)
VH: GGGLVKPGGSLKLSCAASGFTFSSYGMSWVRQTPEKRLEWVATISSGGSYTYYPDSVKGRFTISRDNAKNTLYLQMSSLRSEDTAMYYCASLASYYFDYWGQGTTLTVSS
VL: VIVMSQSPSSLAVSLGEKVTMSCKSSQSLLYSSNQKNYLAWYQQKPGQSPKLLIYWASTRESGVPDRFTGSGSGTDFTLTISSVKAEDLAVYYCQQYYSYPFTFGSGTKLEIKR
**Q.** Which results are given for B5?
**A.** rate of increase in mean fluorescence intensity [1]: ≥ 20%; cytotoxicity (ADCC, 51Cr release) on SK-Hep-1 [2]: ≥ 12%

B6: mouse monoclonal antibody #4 (antibody, V domains shown)
VH: GAELVRSGASVKMSCKASGYSFTDYNMYWVKQTPGQGLEWIGYIYPGNGGTNYNQKFKGKATLTADTSSSTAYMQISSLTSEDSAVYFCARDYDDGGYAMDYWGQGTTVTVSS
VL: DIQMTQSPASLSASVGETVTITCRASGNIHNYLTWYQQKQGKSPQLLVYNAKTLADGVPSRFSGSGSGTQYSLKINRLQPEDFGSYYCQHFWNIPWTFGGGTKLNSR
notes: mouse hybridoma antibody
**Q.** For B6, which “rate of increase” value [1] is on record?
**A.** ≥ 20%

**Q.** And the “cytotoxicity” value [2]?
**A.** ≥ 12%

**Q.** Does B6 bind [3]?
**A.** binds

**Q.** Does B6 bind [4]?
**A.** binds

B7: human-chicken chimeric antibody #1 (antibody, human IgG1, kappa, V domains shown)
VH: AVTLDESGGGLQMSRGGLSLVCKASGFDFSSYQMNWIRQAPGKGLEFVAAINKFGNSTGHGAAVKGRVTISRDNGQSTVRLQLNNLRAEDTAIYFCTKHAYGYCGSGTWCAAGEIDAWGHGTEVIVSS
VL: QAASTQPSSVSANPGETVEITCSGGGSYSYGWFQQKSPGSAPVTVIYYNNKRPSDIPSRFSGSKSGSTGTLTITGVQADDEAVYYCGSGDSTDTAVFGAGTTLTVLG
notes: chicken variable domains with human IgG1 H-chain and L-chain constant domains; also called human-chicken chimeric monoclonal antibody #1
**Q.** Does B7 bind [3]?
**A.** binds

**Q.** Does B7 bind [4]?
**A.** binds

B8: humanized anti-CAPRIN-1 antibody #2 (antibody, human IgG1, V domains shown)
VH: EVQLVESGGGLVQPGGSLRLSCAASGFSFSGSYYMSWVRQAPGKGLEWIAYIYIGDGVTAYANWAKGRFTISKDNSKNTLYLQMNSLRAEDTAVYFCARGNKLWGPGTLVTVSS
VL: DIQMTQSPSSLSASVGDRVTIKCQASQSISSYLAWYQQKPGKAPKRLIYDASNLDSGVPSRFSGSGSGTDFTFTISSLQPEDIATYYCQCTAVSSATIYGNAFGGGTKVEIK
**Q.** Does B8 bind [5]?
**A.** binds

**Q.** Does B8 bind [6]?
**A.** binds

**Q.** Does B8 bind [7]?
**A.** binds

B9: humanized anti-CAPRIN-1 antibody #1 (antibody, human IgG1, V domains shown)
VH: QVQLVESGGGLVKPGGSLRLSCAASGFSFSGSYYMSWVRQAPGKGLEWIAYIYIGDGVTAYANWAKGRFTISRDNAKNSLYLQMNSLRAEDTAVYFCARGNRLWGQGTLVTVSS
VL: DIQMTQSPSSLSAAVGDRVTIKCQASQSISSYLAWYQQKPGKPPKRLIYDASNLDSGVPSRFSGSGSGTDFTFTISSLQPEDIATYYCQCTAVSSATIYGNAFGGGTKVEIK
**Q.** Does B9 bind [5]?
**A.** binds

**Q.** Does B9 bind [6]?
**A.** binds

**Q.** Does B9 bind [7]?
**A.** binds

B10: humanized anti-CAPRIN-1 antibody #3 (antibody, human IgG1, V domains shown)
VH: EVQLVESGGGLVQPGGSLRLSCAASGFSFSGSYYMSWVRQAPGKGLEWIAYIYIGDGVTAYANWAKGRFTISRDNSKNTLYLQMNSLRAEDTAVYYCARGNKLWGPGTLVTVSS
VL: DIQMTQSPSSLSASVGDRVTIKCQASQSISSYLAWYQQKPGKAPKRLIYDASNLDSGVPSRFSGSGSGTDFTFTISSLQPEDIATYYCQCTAVSSATIYGNAFGGGTKVEIK
**Q.** Does B10 bind [5]?
**A.** binds

**Q.** Does B10 bind [6]?
**A.** binds

**Q.** Does B10 bind [7]?
**A.** binds
